Key:
[1] = biological target: recombinant human P-selectin Fc chimera (human) (UniProt P16109); experiment: flow cytometry; inhibition of human P-selectin Fc chimera binding to human U-937 cells
[2] = biological target: recombinant human L-selectin Fc chimera (human) (UniProt P14151); experiment: flow cytometry; inhibition of human L-selectin Fc chimera binding to human U-937 cells
[3] = biological target: selectins on endothelium; experiment: cell-based or functional assay
[4] = biological target: recombinant human P-selectin Fc chimera (human) (UniProt P16109); experiment: flow cytometry; inhibition of human P-selectin Fc chimera binding to human peripheral blood monocytes
[5] = biological target: recombinant mouse P-selectin Fc chimera (mouse) (UniProt Q01102); experiment: Biacore; biotinylated glycopeptide captured on a streptavidin chip, mP-sel-Ig flowed over (trace shown at 20 µg/ml) [lower middle panel 'mP-sel-Ig (20 µg/ml)' (E in the legend]
Sequence of recombinant mouse P-selectin Fc chimera (mouse) (Q01102 42-709, change not shown): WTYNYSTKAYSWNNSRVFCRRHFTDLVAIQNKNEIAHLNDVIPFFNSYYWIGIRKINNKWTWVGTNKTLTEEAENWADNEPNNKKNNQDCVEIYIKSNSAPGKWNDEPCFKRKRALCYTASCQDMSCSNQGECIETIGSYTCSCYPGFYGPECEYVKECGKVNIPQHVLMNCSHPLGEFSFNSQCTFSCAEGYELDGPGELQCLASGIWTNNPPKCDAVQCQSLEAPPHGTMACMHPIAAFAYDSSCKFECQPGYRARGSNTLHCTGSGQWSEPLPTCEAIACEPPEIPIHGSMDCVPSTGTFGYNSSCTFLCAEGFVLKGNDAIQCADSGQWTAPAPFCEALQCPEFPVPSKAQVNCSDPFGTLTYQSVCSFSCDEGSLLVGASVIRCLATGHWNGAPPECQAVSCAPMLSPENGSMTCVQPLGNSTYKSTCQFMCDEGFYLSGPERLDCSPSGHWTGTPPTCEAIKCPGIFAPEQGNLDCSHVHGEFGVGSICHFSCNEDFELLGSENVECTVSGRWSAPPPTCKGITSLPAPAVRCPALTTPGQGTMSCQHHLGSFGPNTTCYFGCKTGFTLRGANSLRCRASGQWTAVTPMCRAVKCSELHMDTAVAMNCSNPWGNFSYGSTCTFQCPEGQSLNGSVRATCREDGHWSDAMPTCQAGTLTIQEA

[6] = biological target: recombinant mouse P-selectin Fc chimera (mouse) (UniProt Q01102); experiment: flow cytometry; inhibition of mouse P-selectin Fc chimera (2 µg/mL) binding to murine PMN
[7] = biological target: recombinant human P-selectin Fc chimera (human) (UniProt P16109); experiment: Biacore; biotinylated glycopeptide on streptavidin chip, P-sel-Ig flowed
[8] = biological target: recombinant mouse P-selectin Fc chimera (mouse) (UniProt Q01102); experiment: as above
[9] = biological target: recombinant human P-selectin Fc chimera (human) (UniProt P16109); experiment: Biacore; biotinylated glycopeptide on streptavidin chip, P-sel-Ig (2.5 to 60 µg/mL) flowed
[10] = biological target: recombinant mouse L-selectin Fc chimera (mouse) (UniProt P18337); experiment: flow cytometry; inhibition of mouse L-selectin Fc chimera binding to murine neutrophils
Sequence of recombinant mouse L-selectin Fc chimera (mouse) (P18337 39-332, change not shown): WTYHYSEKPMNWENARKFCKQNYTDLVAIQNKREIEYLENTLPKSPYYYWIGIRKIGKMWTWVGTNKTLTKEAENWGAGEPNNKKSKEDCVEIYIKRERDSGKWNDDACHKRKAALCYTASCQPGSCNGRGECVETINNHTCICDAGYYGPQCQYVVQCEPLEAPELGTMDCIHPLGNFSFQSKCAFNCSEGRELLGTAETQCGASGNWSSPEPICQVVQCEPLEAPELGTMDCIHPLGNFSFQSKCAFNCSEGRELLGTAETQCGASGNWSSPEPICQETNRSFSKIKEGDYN

[11] = biological target: recombinant human P-selectin Fc chimera (human) (UniProt P16109); experiment: flow cytometry; inhibition of human P-selectin Fc chimera binding to human peripheral blood PMN
[12] = biological target: recombinant human P-selectin Fc chimera (human) (UniProt P16109); experiment: comparator value given with the Biacore results; method not stated

Sequence of recombinant human P-selectin Fc chimera (human) (P16109 42-771, change not shown): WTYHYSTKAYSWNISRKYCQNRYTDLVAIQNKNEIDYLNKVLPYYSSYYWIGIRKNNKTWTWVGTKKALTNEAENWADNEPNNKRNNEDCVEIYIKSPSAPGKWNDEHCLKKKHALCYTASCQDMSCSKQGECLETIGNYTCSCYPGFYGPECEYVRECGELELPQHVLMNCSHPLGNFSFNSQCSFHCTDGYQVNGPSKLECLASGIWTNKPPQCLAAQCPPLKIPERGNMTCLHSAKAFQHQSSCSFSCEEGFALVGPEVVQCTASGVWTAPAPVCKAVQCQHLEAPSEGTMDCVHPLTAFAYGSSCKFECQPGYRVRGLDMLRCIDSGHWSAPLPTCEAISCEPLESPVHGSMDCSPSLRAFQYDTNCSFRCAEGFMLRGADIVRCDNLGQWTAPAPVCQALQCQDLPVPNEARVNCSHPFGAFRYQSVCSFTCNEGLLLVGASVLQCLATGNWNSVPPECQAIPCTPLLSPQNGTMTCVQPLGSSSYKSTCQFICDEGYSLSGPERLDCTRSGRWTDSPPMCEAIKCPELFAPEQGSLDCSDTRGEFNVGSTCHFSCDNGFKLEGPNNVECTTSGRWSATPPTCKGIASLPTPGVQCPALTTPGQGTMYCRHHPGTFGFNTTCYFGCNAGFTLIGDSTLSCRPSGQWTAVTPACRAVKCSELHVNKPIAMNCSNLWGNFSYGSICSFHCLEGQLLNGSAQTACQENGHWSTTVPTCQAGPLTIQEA
Sequence of recombinant human L-selectin Fc chimera (human) (P14151 39-332, stated change not applied): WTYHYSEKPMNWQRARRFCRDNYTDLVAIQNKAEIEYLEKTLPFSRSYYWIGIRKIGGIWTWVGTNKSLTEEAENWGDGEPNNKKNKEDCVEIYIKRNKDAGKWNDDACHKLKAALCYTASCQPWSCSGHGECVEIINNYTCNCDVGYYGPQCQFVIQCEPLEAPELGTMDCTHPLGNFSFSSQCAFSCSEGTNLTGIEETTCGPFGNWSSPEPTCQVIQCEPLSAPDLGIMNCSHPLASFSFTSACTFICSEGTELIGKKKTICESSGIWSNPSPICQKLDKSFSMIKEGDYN

Row | IC50 [1] [µM] | IC50 [2] [µM] | mean leukocyte rolling velocity (intravital microscopy, murine cremaster venules, GSnP-6 IV) [3] [µm/s] | IC50 [4] [µM] | Kd [5] [µM] | IC50 [6] [µM] | kon [7] [M⁻¹ s⁻¹] | fold difference of Kd against human P-selectin [8] [fold] | kon [8] [M⁻¹ s⁻¹] | Kd [9] [µM] | IC50 [10] [µM] | IC50 [11] [µM] | Kd [12] [µM] | Substance
1 | 8 | 30 | 74.9 | 30 | 0.186 | 15 | 310000 | 9 | 49000 | 0.022 | > 50 | 30 | – | GSnP-6 (peptide)
2 | – | – | – | – | – | – | – | – | – | – | – | – | 0.073 | native PSGL-1 (from UniProt Q14242 42-412) (ligand)
